Data as given in US20250368744A1 (CONCEPT TO MEDICINE BIOTECH, published 2025).
Like-named read-outs stand apart in the source and are kept apart here.

Tests used:
[1] = target: T1, human C-C motif chemokine receptor 8 (CCR8) (human, UniProt P51685 1-355); experiment: cell-based or functional assay
[2] = target: T1, human C-C motif chemokine receptor 8 …; experiment: cell-based or functional assay; remark: listed apart in the source
[3] = target: T1, human C-C motif chemokine receptor 8 …; experiment: FACS (MFI PE) on HEK293 hCCR8 cells
human CCR4 = target: T2, human CCR4 (human, UniProt P51679 1-360); experiment: FACS, CHO-K1 hCCR4 cells
T2 construct: whole, on cells; also called hCCR4
T2 sequence (looked up): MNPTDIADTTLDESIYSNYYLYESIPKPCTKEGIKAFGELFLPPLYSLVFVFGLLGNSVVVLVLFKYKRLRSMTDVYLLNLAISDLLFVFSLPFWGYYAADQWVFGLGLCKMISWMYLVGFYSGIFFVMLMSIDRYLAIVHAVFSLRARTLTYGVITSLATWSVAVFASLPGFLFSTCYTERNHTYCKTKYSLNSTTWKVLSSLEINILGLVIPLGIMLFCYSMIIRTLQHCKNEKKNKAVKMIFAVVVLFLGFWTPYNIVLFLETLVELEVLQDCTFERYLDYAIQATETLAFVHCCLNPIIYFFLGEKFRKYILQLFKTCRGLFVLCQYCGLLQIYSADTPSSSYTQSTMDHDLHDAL
Protocol: (§1) Briefly, HEK293 hCCR8 cell line, CHO-K1 cyno CCR8 cell line or CHO-K1 hCCR4 cell line was first incubated with 5-fold serially diluted and 8 doses with the above 10 chimeric Abs and hlgG1 control starting from 100 nM at 4° C. for 30 mins. After washing by FACS buffer, PE Goat anti-Human IgG Fc Secondary Antibody (eBioscience™, Invitrogen) was added to each well and incubated at 4° C. for 30 mins. Samples were washed twice with FACS buffer. The mean florescence intensity (MFI) of PE was evaluated by MACSQuant Analyzer 16.

[4] = target: T1, human C-C motif chemokine receptor 8 …; experiment: FACS (MFI-PE) on HEK293 hCCR8 cells
Protocol: as §1

cyno CCR8 [5] = target: T3, cyno CCR8 (cynomolgus, UniProt G7NYJ2 1-355); experiment: FACS (MFI-PE) on CHO-K1 cyno CCR8 cells; fitted value, the curve stays at the baseline
T3 construct: whole, on cells; also called cynomolgus CCR8 protein
T3 sequence (G7NYJ2 entry or part of it): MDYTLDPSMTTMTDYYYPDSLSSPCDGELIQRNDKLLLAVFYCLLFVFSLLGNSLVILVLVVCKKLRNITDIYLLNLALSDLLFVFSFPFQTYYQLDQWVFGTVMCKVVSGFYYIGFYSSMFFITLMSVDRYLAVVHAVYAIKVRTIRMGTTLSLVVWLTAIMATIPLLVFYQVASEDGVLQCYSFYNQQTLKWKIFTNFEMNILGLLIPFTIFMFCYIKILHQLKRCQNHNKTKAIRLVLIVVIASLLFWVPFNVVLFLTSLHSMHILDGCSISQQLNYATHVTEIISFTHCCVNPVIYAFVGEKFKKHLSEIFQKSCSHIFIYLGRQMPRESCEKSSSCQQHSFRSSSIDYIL
Protocol: as §1

[6] = target: T1, human C-C motif chemokine receptor 8 …; experiment: cell-based or functional assay; remark: listed apart in the source
[7] = target: T1, human C-C motif chemokine receptor 8 …; experiment: cell-based or functional assay; remark: listed apart in the source
cyno CCR8 [8] = target: T3, cyno CCR8; experiment: FACS (MFI-PE) on CHO-K1 cyno CCR8 cells
Protocol: as §1

[9] = target: T1, human C-C motif chemokine receptor 8 …; experiment: FACS (MFI-PE) on CHO-K1 hCCR8 cells
[10] = target: T1, human C-C motif chemokine receptor 8 …; experiment: cell-based or functional assay; remark: listed apart in the source
[11] = target: T1, human C-C motif chemokine receptor 8 …; experiment: cell-based or functional assay; remark: listed apart in the source
cyno CCR8 [12] = target: T3, cyno CCR8; experiment: FACS (MFI-PE) on CHO-K1 cyno CCR8 cells; remark: listed apart in the source
[13] = target: T1, human C-C motif chemokine receptor 8 …; experiment: FACS (MFI-PE) on HEK293 hCCR8 cells; remark: listed apart in the source
[14] = target: T1, human C-C motif chemokine receptor 8 …; experiment: cell-based or functional assay; remark: listed apart in the source
cyno CCR8 [15] = target: T3, cyno CCR8; experiment: FACS (MFI-PE) on CHO-K1 cyno CCR8 cells; fitted value, the curve hardly leaves the baseline
[16] = target: T1, human C-C motif chemokine receptor 8 …; experiment: cell-based or functional assay; remark: listed apart in the source

T1 sequence (P51685 whole entry): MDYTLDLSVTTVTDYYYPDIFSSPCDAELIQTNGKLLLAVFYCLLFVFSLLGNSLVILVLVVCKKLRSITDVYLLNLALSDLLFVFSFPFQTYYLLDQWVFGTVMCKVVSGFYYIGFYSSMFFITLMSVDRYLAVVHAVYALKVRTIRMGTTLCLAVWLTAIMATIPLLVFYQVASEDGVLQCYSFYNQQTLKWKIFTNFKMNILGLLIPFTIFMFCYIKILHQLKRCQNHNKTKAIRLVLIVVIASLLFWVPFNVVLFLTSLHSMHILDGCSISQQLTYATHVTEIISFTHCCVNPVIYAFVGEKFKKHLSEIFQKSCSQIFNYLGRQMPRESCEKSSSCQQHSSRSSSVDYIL

| EC50 [4] | IC50, hCCL1-induced Ca2+ flux (stimulation %), Chem-1 hCCR8 cells [lower graph] [6] | IC50, hCCL1-induced beta-arrestin recruitment (RLU), CHO-K1 hCCR8 cells [7] | EC50 [9] | IC50, hCCL1-induced Ca2+ flux (stimulation %), Chem-1 hCCR8 cells [10] | IC50, hCCL1-induced beta-arrestin recruitment (RLU), CHO-K1 hCCR8 cells [11] | EC50 (cyno CCR8 [12]) | EC50 [13] | IC50, hCCL1-induced beta-arrestin recruitment (RLU), CHO-K1 hCCR8 cells [16] | Binder | binding result (human CCR4) | other results |
| --- | --- | --- | --- | --- | --- | --- | --- | --- | --- | --- | --- |
|  |  |  | 0.207 nM |  |  | 14.6 nM |  |  | 200C9B9-C2 (antibody, V domains shown, also called 200C9B9 VH with 200C9B9 VL NG-NA) VH: EVQLVESGGGLVQPKGSLKLSCAASGFSFNTYVMNWVRQAPGKGLNWVARIRTKSNNYATFYVDSVKDRFTISRDDSENMLYLQMNNLKIEDTAIYYCVSGTITRLGAGLDYWGQGTSVTVSS VL: DIVMTQAAPSVPVTPGESVSISCRSSKSLLHSNANTYLYWFLQRPGQSPQLLIYRMSNLASGVPDRFSGSGSGTAFTLRISRVEAEDVGVYYCMQHLEYPFTFGGGTKLEIK |  |  |
|  |  |  |  | 0.49 nM |  |  | 0.092 nM | 5.25 nM | Hu195H8D10-7 NG-NA (antibody, V domains shown, humanized, PTM site removed) VH: EVQLVESGGGLVQPGGSLRLSCAASGFNFNTYVMNWVRQAPGKGLEWVARIRTKSNNYATYYADSVKDRFTISRDDSKNSLYLQMNSLKTEDTAVYYCVSGTITRLGGGLDYWGQGTLVTVSS VL: DIVMTQSPLSLPVTPGEPASISCRSSKRLLHSNANTYLYWYLQKPGQSPQLLIYRMSNLASGVPDRFSGSGSGTAFTLKISRVEAEDVGVYYCMQHLEYPFTFGGGTKLEIK |  |  |
|  |  |  |  | 0.36 nM |  |  | 0.069 nM |  | Hu200C9B9-7 NG-NA (antibody, V domains shown, humanized, PTM site removed) VH: EVQLVESGGGLVQPGGSLRLSCAASGFSFNTYVMNWVRQAPGKGLEWVARIRTKSNNYATFYVDSVKDRFTISRDDSKNSLYLQMNSLKTEDTAVYYCVSGTITRLGAGLDYWGQGTLVTVSS VL: DIVMTQSPLSLPVTPGEPASISCRSSKSLLHSNANTYLYWYLQKPGQSPQLLIYRMSNLASGVPDRFSGSGSGTAFTLKISRVEAEDVGVYYCMQHLEYPFTFGGGTKLEIK |  | IC50, hCCL1-induced beta-arrestin recruitment (% stimulation), CHO-K1 hCCR8 cells [1]: 1.58 nM; IC50 (read off the curve), hCCL1-induced beta-arrestin recruitment (RLU), CHO-K1 hCCR8 cells [16]: ~2 nM; IC50, hCCL1-induced Ca2+ flux (% stimulation), Chem-1 hCCR8 cells [2]: 4.33 nM; EC50 [3]: 0.15 nM |

The remaining lines, values behind:

| Binder | EC50 [4] | IC50, hCCL1-induced Ca2+ flux (stimulation %), Chem-1 hCCR8 cells [lower graph] [6] | IC50, hCCL1-induced beta-arrestin recruitment (RLU), CHO-K1 hCCR8 cells [7] | EC50 [9] | IC50, hCCL1-induced Ca2+ flux (stimulation %), Chem-1 hCCR8 cells [10] | IC50, hCCL1-induced beta-arrestin recruitment (RLU), CHO-K1 hCCR8 cells [11] | EC50 (cyno CCR8 [12]) | EC50 [13] | IC50, hCCL1-induced beta-arrestin recruitment (RLU), CHO-K1 hCCR8 cells [16] | binding result (human CCR4) | other results |
| --- | --- | --- | --- | --- | --- | --- | --- | --- | --- | --- | --- |
| 4A19 (antibody, V domains shown) VH: QVQLVQSGAEVKKPGASVKVSCKASGYTFTDSEMHWVRQATGQGLEWMGAIQPETGGTAYNQKFKARVTMTRDTSISTAYMELSSLRSEDTAVYYCARRRRNFDYWGQGTLVTVSS VL: DIVMTQTPLSLSVTPGQPASISCRSSQSLFHSSGNTYLHWYLQKPGQPPQLLIYKVSNRFSGVPDRFSGSGSGTDFTLKISRVEAEDVGVYYCSQSTHVPFTFGQGTKLEIKR |  |  |  |  |  |  |  |  |  |  | IC50, hCCL1-induced beta-arrestin recruitment (% stimulation), CHO-K1 hCCR8 cells [1]: 1.68 nM; IC50, hCCL1-induced Ca2+ flux (% stimulation), Chem-1 hCCR8 cells [2]: 12.9 nM; EC50 [3]: 0.21 nM |
| 163H9D5 (antibody, V domains shown, tested as chimeric mAb) VH: EVQLVESGGGLVQPKGSLKLSCAASGFSFNTYAMNWVRQAPGKGLKWVARIRTKSNNYATHYADSVKDRFTLSRDDSESMLYLQMNNLKTEDTAMYYCVGGGYGSSASNAMAYWGQGTSVTVSS VL: DIVMTQAAPSVPVTPGESVSISCRSSKSLLHSNGNTYLYWFLQRPGQSPQLLIFRMSNLASGVPDRFSGSGSGTAFTLRISRVEAEDVGVYYCMQHLEYPFTFGSGTKLEIK | 0.107 nM | 5.77 nM | 13.8 nM |  |  |  |  |  |  | no binding (tested: 100 nM (highest concentration tested)) | EC50 (cyno CCR8 [5]): 29.9 nM; IC50, hCCL1-induced Ca2+ flux (stimulation %), Chem-1 hCCR8 cells [upper graph] [6]: 7.6 nM |
| 195H8D10 (antibody, V domains shown, tested as chimeric mAb; also called 195H8D10-C) VH: EVQLVGSGGGLVQPKGSLKLSCAASGFNFNTYVMNWVRQAPGKGLEWVARIRTKSNNYATYYADSVKDRFTISRDDSESKLYLQMNNLKTEDTAMYYCVSGTITRLGGGLDYWGQGTSVTVSS VL: DIVMTQAAPSVPVTPGESVSISCRSSKRLLHSNGNTYLYWFLQRPGQSPQLLIYRMSNLASGVPDRFSGSGSGTAFTLRISRVEAEDVGVYYCMQHLEYPFTFGGGTKLEIK | 0.0746 nM | 1.62 nM | 3.48 nM | 0.211 nM | 0.33 nM | 0.55 nM | 0.378 nM | 0.041 nM |  | no binding (tested: 100 nM (highest concentration tested)) | EC50 (cyno CCR8 [8]): 0.37 nM; IC50, hCCL1-induced migration of BaF3 hCCR8 cells (RLU) [cont'd) C] [14]: 0.478 nM |
| 195H8D10-C2 (antibody, V domains shown, also called 195H8D10 VH with 195H8D10 VL NG-NA) VH: EVQLVGSGGGLVQPKGSLKLSCAASGFNFNTYVMNWVRQAPGKGLEWVARIRTKSNNYATYYADSVKDRFTISRDDSESKLYLQMNNLKTEDTAMYYCVSGTITRLGGGLDYWGQGTSVTVSS VL: DIVMTQAAPSVPVTPGESVSISCRSSKRLLHSNANTYLYWFLQRPGQSPQLLIYRMSNLASGVPDRFSGSGSGTAFTLRISRVEAEDVGVYYCMQHLEYPFTFGGGTKLEIK |  |  |  |  |  | 0.288 nM | 0.517 nM |  |  |  |  |
| 195H8D10-C1 (antibody, V domains shown, also called 195H8D10 VH with 195H8D10 VL NG-QG) VH: EVQLVGSGGGLVQPKGSLKLSCAASGFNFNTYVMNWVRQAPGKGLEWVARIRTKSNNYATYYADSVKDRFTISRDDSESKLYLQMNNLKTEDTAMYYCVSGTITRLGGGLDYWGQGTSVTVSS VL: DIVMTQAAPSVPVTPGESVSISCRSSKRLLHSQGNTYLYWFLQRPGQSPQLLIYRMSNLASGVPDRFSGSGSGTAFTLRISRVEAEDVGVYYCMQHLEYPFTFGGGTKLEIK |  |  |  | 0.29 nM |  |  |  |  |  |  | EC50 (cyno CCR8 [15]): 68.1 nM |
| 200C9B9 (antibody, V domains shown, tested as chimeric mAb; also called 200C9B9-C) VH: EVQLVESGGGLVQPKGSLKLSCAASGFSFNTYVMNWVRQAPGKGLNWVARIRTKSNNYATFYVDSVKDRFTISRDDSENMLYLQMNNLKIEDTAIYYCVSGTITRLGAGLDYWGQGTSVTVSS VL: DIVMTQAAPSVPVTPGESVSISCRSSKSLLHSNGNTYLYWFLQRPGQSPQLLIYRMSNLASGVPDRFSGSGSGTAFTLRISRVEAEDVGVYYCMQHLEYPFTFGGGTKLEIK | 0.0741 nM | 1.89 nM | 0.771 nM | 0.132 nM | 0.55 nM | 0.143 nM | 1.53 nM | 0.05 nM | 3.02 nM | no binding (tested: 100 nM (highest concentration tested)) | EC50 (cyno CCR8 [8]): 3.16 nM; IC50, hCCL1-induced migration of BaF3 hCCR8 cells (RLU) [cont'd) C] [14]: 0.798 nM |
| Hu200C9B9-3 NG-NA (antibody, V domains shown, humanized, PTM site removed) VH: EVQLVESGGGLVQPGGSLRLSCAASGFSFNTYVMNWVRQAPGKGLEWVGRIRTKSNNYATFYVDSVKDRFTISRDDSKNSLYLQMNSLKTEDTAVYYCARGTITRLGAGLDYWGQGTLVTVSS VL: DIVMTQSPLSLPVTPGEPASISCRSSKSLLHSNANTYLYWYLQKPGQSPQLLIYRMSNLASGVPDRFSGSGSGTAFTLKISRVEAEDVGVYYCMQHLEYPFTFGGGTKLEIK |  |  |  |  | 0.21 nM |  |  | 0.052 nM | 1.74 nM |  |  |
